This is an account of results in US20110064653A1 (IMMUNOMEDICS, published 2011).

Test [1] concerns the target CEACAM5/CEACAM6. Kind of test: cell-based or functional assay.
In test [2] the target is CEACAM6 (NCA-90) on cells (human) (UniProt P40199). Kind of test: cell-based or functional assay.
Test [3] addresses T1, carcinoembryonic antigen (CEA) (human, UniProt P06731 35-685).
T1 construct: also called CEACAM5; CD66e
T1 sequence (looked up): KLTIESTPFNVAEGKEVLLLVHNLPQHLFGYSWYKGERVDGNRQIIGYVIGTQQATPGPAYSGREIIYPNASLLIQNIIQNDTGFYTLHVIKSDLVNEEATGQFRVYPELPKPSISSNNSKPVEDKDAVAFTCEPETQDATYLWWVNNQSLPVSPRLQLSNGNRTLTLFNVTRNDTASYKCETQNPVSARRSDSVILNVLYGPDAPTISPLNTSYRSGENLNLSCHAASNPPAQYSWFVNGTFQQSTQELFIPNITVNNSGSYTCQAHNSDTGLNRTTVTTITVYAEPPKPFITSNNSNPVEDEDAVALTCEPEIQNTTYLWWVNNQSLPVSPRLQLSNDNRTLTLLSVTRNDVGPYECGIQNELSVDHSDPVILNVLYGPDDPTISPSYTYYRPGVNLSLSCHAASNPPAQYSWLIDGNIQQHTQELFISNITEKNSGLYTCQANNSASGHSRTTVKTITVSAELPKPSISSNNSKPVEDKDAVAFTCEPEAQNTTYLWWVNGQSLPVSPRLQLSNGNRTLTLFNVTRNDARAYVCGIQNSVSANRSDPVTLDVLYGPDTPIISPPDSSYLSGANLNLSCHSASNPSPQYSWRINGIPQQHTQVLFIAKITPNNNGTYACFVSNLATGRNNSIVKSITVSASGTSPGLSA
Kind of test: 125I-CEA radioimmunoassay.

In test [4] the target is T1, carcinoembryonic antigen (CEA). Kind of test: radioiodinated MAb (100 ng/ml) with increasing CEA; free versus bound antibody by HPLC sizing gel.
In test [5] the target is CEACAM5/CEACAM6. Kind of test: cell-based or functional assay. This is another data set of the same source.
Test [6] has as its target T1, carcinoembryonic antigen (CEA). Kind of test: competitive binding assay on CEA; unlabeled competitor varied against HRP-labeled murine MN-15.
The next test has as its target T2, NCA-95 on HeLa cells (UniProt P31997 35-320, limits assumed).
T2 construct: whole, on cells; also called HeLa-CGM6/1
T2 sequence (looked up): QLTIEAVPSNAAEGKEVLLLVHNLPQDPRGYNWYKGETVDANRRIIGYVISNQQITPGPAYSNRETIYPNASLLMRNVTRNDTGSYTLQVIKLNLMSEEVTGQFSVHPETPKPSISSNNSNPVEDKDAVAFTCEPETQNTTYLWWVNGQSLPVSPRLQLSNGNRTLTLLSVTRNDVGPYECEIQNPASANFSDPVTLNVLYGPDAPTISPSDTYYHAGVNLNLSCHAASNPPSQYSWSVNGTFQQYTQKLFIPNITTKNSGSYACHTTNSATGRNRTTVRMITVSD
Kind of test: indirect flow cytometry on HeLa-CGM6/1 transfectants. On the procedure:
The reacitivty of antibodies was tested by flow cytometry with a Becton-Dickinson FACSCAN®. The biotinylated second antibody was directed against mouse IgG and was detected by a streptavidin/phycoerythrin conjugate. Tests were carried out with antibodies at 1/50 dilution of 1 mg/ml stocks.
The antibodies MN-3 and MN-15 were tested for recognition of HeLa cells transfected with cDNA coding for CEA (HeLa-CEA2), NCA-90 (HeLa-KNC6/S44) and NCA-95 (HeLa-CGM6/1). As a negative control, HeLa cells transfected with the plasmid pSV2-Neo (control HeLa cells, HeLa-NeoA) were used. In addition to the antibodies MN-3 and MN-15, three control antibodies were included: […]
Background: In flow cytometry, cells or beads pass a laser one at a time.

Like-named read-outs stand apart in the source and are kept apart here.

MN-3 Fab′ showed an adhesion-inhibition of MCF-7, HT-29, BT-20 and Moser cells to endothelial cells with CEACAM5/CEACAM6 [1] of 49 to 58%. In test [2], this molecule showed a reduction of cell invasion, BXPC3, collagen-based invasion assay of 0%; a reduction of cell invasion, CaPAN-1, collagen-based invasion assay of 55%; a reduction of cell invasion, LS174T, collagen-based invasion assay of 3%; a reduction of cell invasion, MCF-7, collagen-based invasion assay of 47%. In test [2], this molecule yielded a reduction of cell invasion, ZR75-30, collagen-based invasion assay of 59%.
For NP-4 antibody, the percent of radioiodinated CEA bound in test [3] is < 50%. This molecule also gave a CEA concentration for 50% complexation of the antibody in test [4] of 1 to 2 µg/mL.

B1: MN-15 Fab′ (Fab, V domains shown)
VL: DIQLTQSPAIMSASPGEKVTMTCSASSRVSYIHWYQQKSGTSPKRWIYGTSTLASGVPARFSGSGSGTSYSLTISSMEAEDAATYYCQQWSYNPPTFGAGTKLELKR
VH: EVRLVESGGGLVQGPGSLRLSCAASGFALTDYYMSWVRQSPGKTLEWLGFIANKANGHTTDYSPSVKGRFTISRDNSQTILYLQMNTLRTEDSATYYCARDMGIRWNFDVWGQGTTVTVSS
In turn, B1 had an adhesion-inhibition of MCF-7, HT-29, BT-20 and Moser cells to endothelial cells with CEACAM5/CEACAM6 [5] of 49 to 58%.

B2: murine MN-15 antibody (antibody, mouse IgG1, V domains shown)
VH: B1 VH
VL: B1 VL
notes: also called mMN-15; MN-15 IgG
Take B2: the “IC50 (read off the curve)” value in test [6] is ~5 nM. In the test with CEACAM5/CEACAM6 [5], this molecule returned a decrease of adhesion of CaPAN-1 cells to fibronectin of 47%, a decrease of adhesion of MCF-7 cells to fibronectin of 29% and a decrease of adhesion of MDA-468 cells to fibronectin of 51%. Moreover, in the test with NCA-95 on HeLa cells, the binding result is “binds”.

B3: chimeric MN-15 antibody (antibody, V domains shown)
VH: B1 VH
VL: B1 VL
B3: the “IC50 (read off the curve)” value in test [6] was ~5 nM.

B4: humanized MN-15 antibody (antibody, V domains shown)
VH: QVQLVESGGGVVQPGRSLRLSCSSSGFALTDYYMSWVRQAPGKGLEWLGFIANKANGHTTDYSPSVKGRFTISRDNSKNTLFLQMDSLRPEDTGVYFCARDMGIRWNFDVWGQGTPVTVSS
VL: DIQLTQSPSSLSASVGDRVTMTCSASSRVSYIHWYQQKPGKAPKRWIYGTSTLASGVPARFSGSGSGTDFTFTISSLQPEDIATYYCQQWSYNPPTFGQGTKVEIKR
notes: Humanized variable regions (REI VK and KOL VH frameworks) cloned alongside human IgG1 constant region genes; also called hMN-15
For the molecule B4, in test [6], the “IC50 (read off the curve)” value is ~5 nM.
